Measurements from US20210230286A1 (published 2021).
Where no end group is shown, it is not given here.

Target: T1, PD-L1 protein (human, UniProt Q9NZQ7 19-238, limits assumed)
T1 construct: Plate-coated recombinant protein; also called human PD-L1 protein
Experiment: ELISA: PD-L1 coated at 2 ug/ml, FITC-labelled PPLC titrated, HRP anti-FITC detection, OD 410 nm
Method: A 96-well ELISA plate was coated with 2μg/ml PD-L1 protein at 4° C. overnight. […] After incubation, HRP-conjugated anti-FITC antibody was added, incubated for 1 h, and then ABTS coloring solution was added. The OD value at 410 nm was measured using a M5 microplate reader, and GraphPad Prism 6 was used for plotting and analysis.

T1 sequence (Q9NZQ7 19-238 limits assumed): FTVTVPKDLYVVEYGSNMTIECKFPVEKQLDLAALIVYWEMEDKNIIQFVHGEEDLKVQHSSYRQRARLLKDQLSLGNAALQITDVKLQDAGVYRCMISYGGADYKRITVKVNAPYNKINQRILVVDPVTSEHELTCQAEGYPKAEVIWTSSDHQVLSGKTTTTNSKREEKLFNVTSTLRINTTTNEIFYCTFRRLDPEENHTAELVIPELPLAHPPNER

B1: PPLC peptide labeled with FITC (peptide)
peptide: VSVSHFQKVWVV
modifications: also: FITC label, attachment not given here
notes: Chemically synthesized peptide; The FITC-labelled form was used in the direct ELISA, flow cytometry and confocal assays; also called FITC-labeled PPLC
For B1, the Kd was 750 nM.
